The values below come from US20030235860A1, “Interactions between AR, ER, TR2, and TR4” (priority 1999, published 2003).

Data set [1] has as its target T1, GST-TR4 fusion protein (human, UniProt P49116 1-596).
T1 construct: also called pGEX-3X-TR4
T1 sequence: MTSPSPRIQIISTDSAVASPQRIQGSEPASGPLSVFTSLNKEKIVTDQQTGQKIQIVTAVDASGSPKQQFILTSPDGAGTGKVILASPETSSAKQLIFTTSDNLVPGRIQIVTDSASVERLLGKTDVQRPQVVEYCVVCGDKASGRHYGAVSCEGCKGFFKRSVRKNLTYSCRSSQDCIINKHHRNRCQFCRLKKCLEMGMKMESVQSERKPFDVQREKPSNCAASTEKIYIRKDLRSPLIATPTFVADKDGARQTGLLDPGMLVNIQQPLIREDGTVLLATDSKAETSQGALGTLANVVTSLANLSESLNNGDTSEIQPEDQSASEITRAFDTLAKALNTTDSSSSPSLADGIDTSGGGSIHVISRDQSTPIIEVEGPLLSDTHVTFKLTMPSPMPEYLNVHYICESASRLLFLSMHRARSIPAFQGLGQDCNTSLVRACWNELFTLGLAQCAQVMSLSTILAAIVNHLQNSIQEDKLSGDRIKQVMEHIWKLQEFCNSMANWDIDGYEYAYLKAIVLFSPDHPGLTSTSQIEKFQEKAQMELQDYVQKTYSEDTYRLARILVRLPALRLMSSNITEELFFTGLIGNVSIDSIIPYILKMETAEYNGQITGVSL
Put plainly: GST pull-down, GST-TR4 on beads, 35S-labeled RXRα.

Data set [2] addresses T2, TR2 orphan receptor (full length, 603 aa) (UniProt P13056 SEQ:1-603).
T2 chain: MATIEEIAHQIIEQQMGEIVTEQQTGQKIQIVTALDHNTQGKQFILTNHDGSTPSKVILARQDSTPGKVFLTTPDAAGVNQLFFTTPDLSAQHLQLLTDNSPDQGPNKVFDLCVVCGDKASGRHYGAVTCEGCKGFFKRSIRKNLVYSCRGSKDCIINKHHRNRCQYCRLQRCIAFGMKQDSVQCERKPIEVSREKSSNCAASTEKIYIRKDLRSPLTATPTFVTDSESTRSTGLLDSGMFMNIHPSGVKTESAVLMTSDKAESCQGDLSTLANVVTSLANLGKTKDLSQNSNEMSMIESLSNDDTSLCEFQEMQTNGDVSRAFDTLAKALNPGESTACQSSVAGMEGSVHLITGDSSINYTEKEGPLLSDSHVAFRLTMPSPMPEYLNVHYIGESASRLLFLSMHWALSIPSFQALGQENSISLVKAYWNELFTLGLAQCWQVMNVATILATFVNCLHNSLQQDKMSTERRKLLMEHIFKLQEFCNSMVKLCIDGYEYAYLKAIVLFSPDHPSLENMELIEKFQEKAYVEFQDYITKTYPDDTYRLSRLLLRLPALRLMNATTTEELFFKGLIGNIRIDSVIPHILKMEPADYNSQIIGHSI
As to the kind of experiment: EMSA; no TR2-ERE band. The following applies: chain copies: 2; label: 32P. (Mobility shift assays separate free from complexed probe on a gel.)

For data set [3], the target named is T3, Estrogen receptor alpha (ER) (Homo sapiens, UniProt P03372 SEQ:1-595).
T3 chain: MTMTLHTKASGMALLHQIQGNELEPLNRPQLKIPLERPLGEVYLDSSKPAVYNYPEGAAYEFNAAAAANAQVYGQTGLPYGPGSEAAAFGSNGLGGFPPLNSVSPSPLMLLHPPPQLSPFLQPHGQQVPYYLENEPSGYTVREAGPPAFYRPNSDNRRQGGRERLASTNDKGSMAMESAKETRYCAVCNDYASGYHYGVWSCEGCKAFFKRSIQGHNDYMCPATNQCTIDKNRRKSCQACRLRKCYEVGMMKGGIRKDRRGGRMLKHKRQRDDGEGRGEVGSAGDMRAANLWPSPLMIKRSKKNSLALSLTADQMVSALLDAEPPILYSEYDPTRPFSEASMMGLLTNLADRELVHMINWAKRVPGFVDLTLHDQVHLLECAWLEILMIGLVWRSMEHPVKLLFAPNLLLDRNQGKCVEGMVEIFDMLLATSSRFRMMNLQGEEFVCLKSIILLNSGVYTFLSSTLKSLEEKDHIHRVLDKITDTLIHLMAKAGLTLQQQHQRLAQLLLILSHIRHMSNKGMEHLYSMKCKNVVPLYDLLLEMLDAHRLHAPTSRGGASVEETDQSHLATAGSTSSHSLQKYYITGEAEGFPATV
Put plainly: EMSA; with or without E2; supershifted by C-314; competed by 100-fold cold ERE; decreased by added TR2. The following applies: chain copies: 2; label: 32P.

Data set [4] deals with T4, TR4 orphan receptor (TR4), full-length (human, UniProt P49116 1-596).
T4 construct: Full-length TR4; 35S-labeled when in vitro translated, expressed from plasmids in the cell assays; also called pCMX-TR4; pCMV-TR4
T4 sequence: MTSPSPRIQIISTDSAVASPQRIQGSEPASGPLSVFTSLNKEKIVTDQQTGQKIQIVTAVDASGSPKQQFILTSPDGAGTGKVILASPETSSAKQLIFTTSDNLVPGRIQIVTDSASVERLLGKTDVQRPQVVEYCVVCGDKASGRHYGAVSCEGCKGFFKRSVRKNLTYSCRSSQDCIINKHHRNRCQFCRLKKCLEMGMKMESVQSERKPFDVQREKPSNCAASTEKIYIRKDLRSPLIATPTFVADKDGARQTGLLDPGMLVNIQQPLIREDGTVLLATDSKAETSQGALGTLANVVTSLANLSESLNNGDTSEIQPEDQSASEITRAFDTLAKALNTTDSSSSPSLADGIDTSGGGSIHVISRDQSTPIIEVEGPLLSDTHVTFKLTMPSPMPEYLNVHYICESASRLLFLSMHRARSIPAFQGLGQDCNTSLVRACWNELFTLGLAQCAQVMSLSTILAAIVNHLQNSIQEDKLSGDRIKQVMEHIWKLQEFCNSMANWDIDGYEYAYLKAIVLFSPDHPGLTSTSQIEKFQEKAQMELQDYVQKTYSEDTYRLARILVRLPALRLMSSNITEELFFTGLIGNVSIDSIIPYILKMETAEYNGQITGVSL
As to the kind of experiment: Table 4, summary of interactions tested; assay not given.

Data set [5] addresses T5, TR4 LBD (row label of Table 4) (human, UniProt P49116 205-596).
T5 construct: not shown: Fusion partner: GST in the pull-down with ER, GAL4-DBD in the hybrid assays with AR
T5 sequence: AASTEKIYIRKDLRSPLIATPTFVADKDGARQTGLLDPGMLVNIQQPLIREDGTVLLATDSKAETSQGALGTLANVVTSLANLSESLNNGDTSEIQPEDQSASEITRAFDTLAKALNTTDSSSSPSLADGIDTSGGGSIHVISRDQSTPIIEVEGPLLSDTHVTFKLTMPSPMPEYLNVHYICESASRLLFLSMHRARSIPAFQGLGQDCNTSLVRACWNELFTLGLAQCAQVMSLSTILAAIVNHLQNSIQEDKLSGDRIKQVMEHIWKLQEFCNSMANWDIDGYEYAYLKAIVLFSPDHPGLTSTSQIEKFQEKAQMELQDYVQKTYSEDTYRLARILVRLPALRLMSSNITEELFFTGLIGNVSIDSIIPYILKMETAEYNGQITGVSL
The description is as above.

B1: retinoid X receptor alpha (RXRα) (receptor, UniProt P19793 1-462, looked up)
chain: MDTKHFLPLDFSTQVNSSLTSPTGRGSMAAPSLHPSLGPGIGSPGQLHSPISTLSSPINGMGPPFSVISSPMGPHSMSVPTTPTLGFSTGSPQLSSPMNPVSSSEDIKPPLGLNGVLKVPAHPSGNMASFTKHICAICGDRSSGKHYGVYSCEGCKGFFKRTVRKDLTYTCRDNKDCLIDKRQRNRCQYCRYQKCLAMGMKREAVQEERQRGKDRNENEVESTSSANEDMPVERILEAELAVEPKTETYVEANMGLNPSSPNDPVTNICQAADKQLFTLVEWAKRIPHFSELPLDDQVILLRAGWNELLIASFSHRSIAVKDGILLATGLHVHRNSAHSAGVGAIFDRVLTELVSKMRDMQMDKTELGCLRAIVLFNPDSKGLSNPAEVEALREKVYASLEAYCKHKYPEQPGRFAKLLLRLPALRSIGLKCLEHLFFFKLIGDTPIDTFLMEMLEAPHQMT
notes: 35S-methionine-labeled, in vitro translated; also called RXRa; RXRA
Turning to B1, in data set [1], the binding result is “no binding”.

B2: complement C3 ERE (dsDNA)
DNA 1: AGGTGGCCCTGACCC
DNA 2: GGGTCAGGGCCACCT
Take B2: the binding result is given as “no binding” in data set [2] and “binds” in data set [3].

B3: ER LBD 282-595 (column label of Table 4) (receptor, not shown: large carriers)
chain: SAGDMRAANLWPSPLMIKRSKKNSLALSLTADQMVSALLDAEPPILYSEYDPTRPFSEASMMGLLTNLADRELVHMINWAKRVPGFVDLTLHDQVHLLECAWLEILMIGLVWRSMEHPVKLLFAPNLLLDRNQGKCVEGMVEIFDMLLATSSRFRMMNLQGEEFVCLKSIILLNSGVYTFLSSTLKSLEEKDHIHRVLDKITDTLIHLMAKAGLTLQQQHQRLAQLLLILSHIRHMSNKGMEHLYSMKCKNVVPLYDLLLEMLDAHRLHAPTSRGGASVEETDQSHLATAGSTSSHSLQKYYITGEAEGFPATV
Consider B3, for which the binding result in data set [4] and in data set [5] was “binds” each time.
